Experimental data reported in IntAct's records for PubMed 18854158.

B1: Double-strand break repair protein rad32 (Schizosaccharomyces pombe (strain ATCC 38366 / 972)), Q09683 (parent)
chain: MPNDPSDMNNELHNENTIRILISSDPHVGYGEKDPVRGNDSFVSFNEILEIARERDVDMILLGGDIFHDNKPSRKALYQALRSLRLNCLGDKPCELELLSDTSLTTGDTAVCNINYLDPNINVAIPVFSIHGNHDDPSGDGRYSALDILQVTGLVNYFGRVPENDNIVVSPILLQKGFTKLALYGISNVRDERLYHSFRENKVKFLRPDLYRDEWFNLLTVHQNHSAHTPTSYLPESFIQDFYDFVLWGHEHECLIDGSYNPTQKFTVVQPGSTIATSLSPGETAPKHCGILNITGKDFHLEKIRLRTVRPFIMKDIILSEVSSIPPMVENKKEVLTYLISKVEEAITEANAQWYEAQGTVPVVENEKPPLPLIRLRVDYTGGYQTENPQRFSNRFVGRVANATDVVQFYLKKKYTRSKRNDGLYTSAVEDIKINSLRVESLVNEYLKTNRLECLPEDSLGEAVVNFVEKDDRDAIKECVETQLNKQINLLVKKRVTEENLEQEISSIINDLPKISTTKRKDYEELPEEVSETSINIAEHTPVLKHTSSLLDHHSPLATSSSEHEMEATPSPALLKKTNKRRELPSSLTKKNTRTPQRSKEVKKVPARKLSQSTKKSDKNTQSTLLFYDPSSTTEAQYLDNEDDEILDD
partner: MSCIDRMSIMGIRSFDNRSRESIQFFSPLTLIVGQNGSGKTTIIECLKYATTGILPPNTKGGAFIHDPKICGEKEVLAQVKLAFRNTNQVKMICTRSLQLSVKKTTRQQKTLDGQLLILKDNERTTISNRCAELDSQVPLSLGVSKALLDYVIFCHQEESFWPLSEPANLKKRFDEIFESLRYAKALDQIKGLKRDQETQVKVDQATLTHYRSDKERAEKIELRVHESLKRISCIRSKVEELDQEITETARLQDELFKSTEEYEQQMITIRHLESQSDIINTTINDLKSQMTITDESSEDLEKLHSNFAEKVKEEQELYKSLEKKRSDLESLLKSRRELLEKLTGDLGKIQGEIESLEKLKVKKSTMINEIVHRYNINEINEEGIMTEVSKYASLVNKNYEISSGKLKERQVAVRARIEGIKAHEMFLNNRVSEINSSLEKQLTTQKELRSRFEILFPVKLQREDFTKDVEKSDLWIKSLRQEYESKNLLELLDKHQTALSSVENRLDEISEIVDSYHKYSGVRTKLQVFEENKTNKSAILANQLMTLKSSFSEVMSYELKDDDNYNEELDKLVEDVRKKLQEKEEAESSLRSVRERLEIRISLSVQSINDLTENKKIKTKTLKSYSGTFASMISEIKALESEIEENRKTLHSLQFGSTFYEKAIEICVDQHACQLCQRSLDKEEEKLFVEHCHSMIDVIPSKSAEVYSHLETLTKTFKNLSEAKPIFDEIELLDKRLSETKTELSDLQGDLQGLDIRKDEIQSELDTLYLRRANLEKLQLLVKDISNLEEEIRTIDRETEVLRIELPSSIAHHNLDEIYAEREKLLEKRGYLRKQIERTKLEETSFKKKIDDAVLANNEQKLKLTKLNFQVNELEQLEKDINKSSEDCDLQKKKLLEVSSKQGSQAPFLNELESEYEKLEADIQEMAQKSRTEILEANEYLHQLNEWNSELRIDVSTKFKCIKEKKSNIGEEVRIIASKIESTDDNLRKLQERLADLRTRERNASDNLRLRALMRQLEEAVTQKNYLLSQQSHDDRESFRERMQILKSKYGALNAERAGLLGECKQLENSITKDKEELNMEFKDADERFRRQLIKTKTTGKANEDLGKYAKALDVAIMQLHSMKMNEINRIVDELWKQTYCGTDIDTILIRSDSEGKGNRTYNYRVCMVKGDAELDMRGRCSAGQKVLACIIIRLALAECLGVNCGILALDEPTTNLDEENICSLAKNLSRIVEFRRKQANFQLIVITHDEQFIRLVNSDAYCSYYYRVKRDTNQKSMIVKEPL
B2: Double-strand break repair protein rad32 (Schizosaccharomyces pombe (strain ATCC 38366 / 972)), Q09683 (parent)
chain: B1 chain
partner: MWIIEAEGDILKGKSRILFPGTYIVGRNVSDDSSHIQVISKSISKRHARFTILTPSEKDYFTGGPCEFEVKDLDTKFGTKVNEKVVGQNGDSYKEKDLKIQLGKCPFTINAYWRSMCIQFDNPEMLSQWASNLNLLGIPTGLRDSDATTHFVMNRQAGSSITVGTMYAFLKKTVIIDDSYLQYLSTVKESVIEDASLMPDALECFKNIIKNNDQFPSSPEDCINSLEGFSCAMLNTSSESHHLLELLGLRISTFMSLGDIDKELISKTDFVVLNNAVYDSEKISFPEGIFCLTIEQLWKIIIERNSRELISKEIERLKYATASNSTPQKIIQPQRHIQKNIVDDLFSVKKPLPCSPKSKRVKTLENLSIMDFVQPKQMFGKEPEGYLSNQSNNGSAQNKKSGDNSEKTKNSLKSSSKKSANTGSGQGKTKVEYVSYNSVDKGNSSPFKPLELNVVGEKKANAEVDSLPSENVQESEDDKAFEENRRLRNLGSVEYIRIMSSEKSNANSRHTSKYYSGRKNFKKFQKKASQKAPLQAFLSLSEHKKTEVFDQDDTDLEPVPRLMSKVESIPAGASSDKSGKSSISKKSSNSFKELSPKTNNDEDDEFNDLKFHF

Variants of: B1
Details: with rad50_schpo rad50, Q9UTJ8

effect of a mutation on the interaction	Variant
decreasing interaction	L77K;L154D

Variants of: B2
Details: with nbs1_schpo nbs1, O43070

effect of a mutation on the interaction	Variant
decreasing interaction	L77K;L154D
